The source of these data is patent US20200317758A1 (published 2020).

Assay [1] deals with T1, recombinant derivative of the LukE protein (SEQ ID NO: 826) with amino-terminal poly-histidine affinity tag (UniProt Q2FXB0 24-306).
T1 chain: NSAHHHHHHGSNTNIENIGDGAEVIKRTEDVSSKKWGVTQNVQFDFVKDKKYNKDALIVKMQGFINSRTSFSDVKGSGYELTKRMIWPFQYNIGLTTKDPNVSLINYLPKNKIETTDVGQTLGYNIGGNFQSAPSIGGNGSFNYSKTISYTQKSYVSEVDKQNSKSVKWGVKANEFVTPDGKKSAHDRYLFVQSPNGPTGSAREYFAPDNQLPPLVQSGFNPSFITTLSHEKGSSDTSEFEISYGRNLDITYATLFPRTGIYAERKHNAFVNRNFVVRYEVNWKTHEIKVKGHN
As to the kind of experiment: BLI; Step C (first mAb), left panel. A general note: Biolayer interferometry detects binding as a change in optical thickness at a sensor tip.

Assay [2] addresses T1, recombinant derivative of the LukE …. As to the kind of experiment: BLI; Step C (first mAb), right panel.
Assay [3] shares this target. The assay can be described thus: BLI; Step E (after SM1B332), left panel.
Assay [4] has the same target. As to the kind of experiment: BLI; Step E (after SM1B332), right panel.
The target in assay [5] is T2, recombinant derivative of the LukD protein (SEQ ID NO: 824) with amino-terminal polyhistidine affinity tag, … (UniProt Q2FXB1 27-327, chemically biotinylated in vitro (sites not given)).
T2 chain: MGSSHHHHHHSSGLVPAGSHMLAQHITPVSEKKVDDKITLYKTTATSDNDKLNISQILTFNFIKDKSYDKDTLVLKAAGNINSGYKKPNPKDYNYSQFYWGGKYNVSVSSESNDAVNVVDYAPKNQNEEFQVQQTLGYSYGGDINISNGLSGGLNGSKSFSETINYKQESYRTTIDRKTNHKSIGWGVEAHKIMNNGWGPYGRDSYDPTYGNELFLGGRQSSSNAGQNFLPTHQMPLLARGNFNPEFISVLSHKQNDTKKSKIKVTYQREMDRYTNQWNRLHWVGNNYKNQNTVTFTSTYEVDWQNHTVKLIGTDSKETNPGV
The assay can be described thus: BLI; Step E (after SM1B221).

For assay [6], the target named is T3, recombinant toxoid variant of the LukAB protein (LukA E323A) with poly-histidine and streptavidin binding … (UniProt Q2FFA2 31-351; P21224 30-338).
T3 chain 1: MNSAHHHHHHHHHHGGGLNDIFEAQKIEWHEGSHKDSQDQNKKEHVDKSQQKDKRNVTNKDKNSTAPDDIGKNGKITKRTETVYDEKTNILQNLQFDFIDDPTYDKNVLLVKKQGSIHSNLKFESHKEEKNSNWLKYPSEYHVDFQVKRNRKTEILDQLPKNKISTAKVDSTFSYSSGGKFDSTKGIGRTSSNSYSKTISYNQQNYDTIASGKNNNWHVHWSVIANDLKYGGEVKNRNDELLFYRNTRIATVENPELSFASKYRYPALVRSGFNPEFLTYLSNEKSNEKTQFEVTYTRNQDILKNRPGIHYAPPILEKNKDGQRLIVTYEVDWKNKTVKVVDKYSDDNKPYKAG
T3 chain 2: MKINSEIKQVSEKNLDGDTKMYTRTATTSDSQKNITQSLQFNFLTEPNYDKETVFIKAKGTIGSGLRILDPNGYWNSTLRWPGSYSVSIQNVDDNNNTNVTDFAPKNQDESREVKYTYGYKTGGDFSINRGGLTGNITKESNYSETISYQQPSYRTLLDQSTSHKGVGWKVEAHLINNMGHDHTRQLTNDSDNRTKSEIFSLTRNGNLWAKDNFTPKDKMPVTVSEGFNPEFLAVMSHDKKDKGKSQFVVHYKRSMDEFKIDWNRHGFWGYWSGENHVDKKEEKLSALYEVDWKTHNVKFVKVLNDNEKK
The assay can be described thus: BLI; Step E (after SM1B245).

Assay [7] addresses T3, recombinant toxoid variant of the LukAB …. The assay can be described thus: BLI; Step C (first mAb).
The target is the same in assay [8]. As to the kind of experiment: BLI; Step E (after SM1B249).

B1: anti-LukE mAb SM1B332 (antibody, V domains shown)
VH: QVQLKESGPGLVAPSQSLSITCTVSGLSLTSYGLSWVRQPPGKGLEWLGVIWGDGSTNYHSALISRLSISKDNSKSQVFLKLNSLQSDDTATYYCATRGDYGSYAMDYWGQGTSVTVSS
VL: QIVLTQSPAIMSASPGEKVTLTCSASSSVSSSYLFWYQQKPGSSPKLWIYSTSNLASGVPVRFSGSGFGTSYSLTISRMEAEDAASYFCHQWSSYPPTFGAGTKLELKR
As usually defined, the Kd is the constant that tells how readily two partners part at equilibrium. Regarding B1, the dissociation constant (Kd) is 1.38 nM in assay [1], 1.47 nM in assay [2], 4.9 nM in assay [3] and 4.9 nM in assay [4].

B2: anti-LukE mAb SM1B318 (antibody, V domains shown)
VH: QVQLQQSGAELMNPGASVKISCKSTGYKFSSYWIEWVKQRPGHGLEWMGEILPGSGSTNHNEKFKGKAIFTADASSNTAYMELSSLTSEDSAVYYCARTISTATDWFAYWGQGTLVTVSA
VL: DVLMTQTPLSLPVSLGDQASISCRSSQTIVYSDGNTYLEWYLQKPGQSPKLLIYKVSNRFSGVPDRVSGSGSGTDFTLKISRVEAEDLGVYYCFQGSHVPYTFGGGTKLEIKR
With B2, the Kd in assay [3] was found to be 5.04 nM.

B3: anti-LukE mAb SM1B507 (antibody)
heavy: EVQLQQSGAELVKPGASVKMSCKASGYTFTDYYMDWVKQSHGKSFEWIGHVNPYNGDTRYNQKFKGKATLTVDKSSTTAYMELNSLTSEDSAVYYCARGNFFDYWGQGTTLSVSSAKTTPPSVYPLAPGSAAQTNSMVTLGCLVKGYFPEPVTVTWNSGSLSSGVHTFPAVLESDLYTLSSSVTVPSSPRPSETVTCNVAHPASSTKVDKKIVPRDCGCKPCICTVPEVSSVFIFPPKPKDVLTITLTPKVTCVVVDISKDDPEVQFSWFVDDVEVHTAQTQPREEQFNSTFRSVSELPIMHQDWLNGKEFKCRVNSAAFPAPIEKTISKTKGRPKAPQVYTIPPPKEQMAKDKVSLTCMITDFFPEDITVEWQWNGQPAENYKNTQPIMNTNGSYFVYSKLNVQKSNWEAGNTFTCSVLHEGLHNHHTEKSLSHSPGK
light: DIVMTQSPAIMSASPGEKVTIPCSASSSVSYMHWFQQKPGTSPKLWIYSTSNLASGVPGRFSGSGSGTSYSLTISRMEAEDAATYYCQQRSNYPLTFGAGTKLELKRADAAPTVSIFPPSSEQLTSGGASVVCFLNNFYPKDINVKWKIDGSERQNGVLNSWTDQDSKDSTYSMSSTLTLTKDEYERHNSYTCEATHKTSTSPIVKSFNRNEC
As to B3, in assay [4], the Kd came to 3.52 nM.

B4: antibody SM1B225 (antibody, V domains shown)
VH: EVQLQQSGGGLVKPGGSLKLSCAASGFTFSSYAMSWVRQTPEKRLEWVATITGGGTYTYYLDSVKGRFTISRDNAKTSLYLQMSSLRSEDTAMYYCARHRDGNYGCFDVWGAGTTVTVSS
VL: DIVLTQSPAIMSASLGERVTMTCTASSSVSSSYLHWYQQKPGSSPKLWVYSTSNLASGVPARFSGSGSGSSYSLTISSMEPEDTATYYCHQYHRSPQTFGGGTKLEIKR
On to B4, for which the Kd in assay [5] was found to be 4.67 nM.

B5: anti-LukAB mAb SM1B111 (antibody, V domains shown)
VH: EVQLQQSGAELVKPGASVKISCKASGYAFSSSWMNWLKQRPGKGLEWIGRIYPGDGDTNYNGKFKGKATLTADKSSSTAYMQLSSLTSEDSAVYFCARYGYDYDGEYYYAMDYWGQGTSVTVSS
VL: DIVMTQSPTTMAASPGERITITCSAHSNLISNYLHWYQQKPGFSPKLLIYRTSNLASGVPARFSGSGSGTSYSLTIGTMEAEDVATYFCQQGSSIPFTFGSGTKLEIKR
Turning to B5, the Kd in assay [6] came to 4.53 nM.

B6: anti-LukAB mAb SM1B245 (antibody, V domains shown)
VH: QVQLQQSGAELAKPGASVKMSCKSSGYTFSTYWMHWVKQRPGQGLEWIGYINPNTGYTEYNQKFKDTATLTADKSSSTAYMQLSSLTSEDSAVYYCARGGSKAFPYYAMDYWGQGTSVTVSS
VL: DIVLTQSPASLAVSLGQRATMSCRASESVDGYGNSFLHWYQQKPGQPPKLLIYRASNLESGIPARFSGTGSRTDFTLTITPVEADDVATYYCQQSNGDPFTFGSGTKLEIKR
Regarding B6, the dissociation constant (Kd) in assay [7] was 0.656 nM; in assay [8] it was 1.31 nM; in assay [6] it was 11.5 nM.
